Assay [1] has as its target T1, Cynomolgus CD3 on Cyno CD3+ Jurkat cells (cynomolgus, UniProt Q95LI5 22-198).
T1 construct: whole, on cells; CD3 on cells; also called cCD3
As to the kind of experiment: cell binding, cyno CD3+ Jurkat cells.

Assay [2] deals with T1, Cynomolgus CD3 on Cyno CD3+ Jurkat cells. The assay is described as follows: cell binding cCD3, fold over background.
The target of assay [3] is T2, Human CD3 on Human CD3+ Jurkat cells (human, UniProt P07766 23-207).
T2 construct: whole, on cells; CD3 complex on cells; also called hCD3
T2 sequence (P07766 23-207): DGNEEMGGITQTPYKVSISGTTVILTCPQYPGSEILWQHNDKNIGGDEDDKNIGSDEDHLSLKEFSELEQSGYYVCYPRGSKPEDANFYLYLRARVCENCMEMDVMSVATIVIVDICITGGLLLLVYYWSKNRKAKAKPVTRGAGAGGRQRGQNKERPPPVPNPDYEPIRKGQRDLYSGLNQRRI
As to the kind of experiment: cell binding, human CD3+ Jurkat cells.

In assay [4] the target is Human CD3εδ-Fc (human) (UniProt P04234). The assay is described as follows: Biacore SPR, monovalent KD, biotinylated human CD3εδ-Fc. On the technique in general: In SPR one partner is held on a chip, and binding of the other changes the refractive index at the surface.
Chain of Human CD3εδ-Fc (human) (chain, as listed by the source mutant, chain 1 of 2): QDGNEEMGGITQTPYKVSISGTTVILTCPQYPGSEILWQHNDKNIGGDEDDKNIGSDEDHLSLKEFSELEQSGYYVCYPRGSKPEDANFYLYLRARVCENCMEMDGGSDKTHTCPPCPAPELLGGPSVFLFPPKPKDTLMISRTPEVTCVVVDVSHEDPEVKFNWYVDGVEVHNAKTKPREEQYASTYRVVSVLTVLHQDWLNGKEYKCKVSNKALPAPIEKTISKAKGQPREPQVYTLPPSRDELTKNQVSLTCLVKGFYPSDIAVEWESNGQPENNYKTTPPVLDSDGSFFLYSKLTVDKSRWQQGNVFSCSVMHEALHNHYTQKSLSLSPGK
Chain of Human CD3εδ-Fc (human) (P04234 22-105, stated change not applied, chain 2 of 2): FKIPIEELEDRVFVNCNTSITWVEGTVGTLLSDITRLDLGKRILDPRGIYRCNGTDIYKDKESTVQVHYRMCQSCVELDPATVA
In assay [5] the target is T2, Human CD3 on Human CD3+ Jurkat cells. The assay is described as follows: cell binding hCD3, fold over background.
The target of assay [6] is Human CD3εδ-Fc (human) (UniProt P04234). As to the kind of experiment: KD of scFv-Fc or IgG on human CD3εδ-Fc; instrument not given.
Assay [7] addresses Cyno CD3εδ-Fc (cynomolgus) (UniProt Q95LI8). The assay is described as follows: KD of scFv-Fc or IgG on cyno CD3εδ-Fc; instrument not given.
The target of assay [8] is Human CD3εδ-Fc (human) (UniProt P04234). As to the kind of experiment: KD of scFv-Fc or IgG on human CD3εδ-Fc; instrument not given; second row for this clone.

The results in this text go back to patent US20260209352A1 (Adimab, published 2026).

Chain of Cyno CD3εδ-Fc (cynomolgus) (chain, as listed by the source mutant, chain 1 of 2): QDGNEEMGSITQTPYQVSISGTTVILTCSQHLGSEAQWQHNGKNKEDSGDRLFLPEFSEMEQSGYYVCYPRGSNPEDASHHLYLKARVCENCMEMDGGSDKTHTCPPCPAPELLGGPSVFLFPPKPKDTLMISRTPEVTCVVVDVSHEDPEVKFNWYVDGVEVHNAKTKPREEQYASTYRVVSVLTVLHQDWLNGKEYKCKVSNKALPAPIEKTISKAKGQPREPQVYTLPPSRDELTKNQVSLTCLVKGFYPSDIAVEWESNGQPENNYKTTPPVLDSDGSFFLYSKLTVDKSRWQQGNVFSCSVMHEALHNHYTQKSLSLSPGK
Chain of Cyno CD3εδ-Fc (cynomolgus) (Q95LI8 22-105, stated change not applied, chain 2 of 2): as the sequence (P04234 22-105, stated change not applied, chain 2 of 2) above, with I5V, N15K, I20V, S32T, D33N, I34N, T64A, S74N, V83L counted along it
T1 sequence (Q95LI5 22-198): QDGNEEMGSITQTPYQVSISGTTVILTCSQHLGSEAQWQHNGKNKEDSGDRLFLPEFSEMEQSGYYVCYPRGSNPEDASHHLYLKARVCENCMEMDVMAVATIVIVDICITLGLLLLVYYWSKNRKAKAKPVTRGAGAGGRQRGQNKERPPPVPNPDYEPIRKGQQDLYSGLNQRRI

B1: ADI-42594 (antibody, V domains shown)
VH: QVQLVQSGAEVKKPGASVKVSCKASGFNIKDYYMHWVRQAPGQRLEWIGWIDLENANTVYDAKFQGRVTITRDTSASTAYMELSSLRSEDTAVYYCARDAYGRYFYDVWGQGTLVTVSS
VL: DIVMTQSPDSLAVSLGERATINCKSSQSLLNARTGKNYLAWYQQKPGQPPKLLIYWASTRESGVPDRFSGSGSGTDFTLTISSLQAEDVAVYYCKQSYFRRTFGGGTKVEIK
notes: also called Ab1
The Kd is the free concentration of one partner at which half of the binding sites on the other are occupied at equilibrium, for simple one-to-one binding. Take B1: the entries for the “Cell Binding Fold Over Background (FOB)” value in assay [1] and in assay [3] were 16 FOB and 14 FOB, respectively. Further, the “Cell Binding cCD3 (FOB)” value in assay [2] turned out to be 122 FOB. For the same molecule, the results for the Kd (in the assay with Human CD3εδ-Fc (human) [4]; with Human CD3εδ-Fc (human) [6]; in assay [7]) were 0.47 nM, 0.2 nM and 2 nM, respectively. In addition, the “Cell Binding hCD3 (FOB)” value in assay [5] was 36 FOB.

B2: ADI-46378 (antibody, V domains shown)
VH: QVQLVQSGAEVKKPGASVKVSCKASGFNIKDYYMHWVRQAPGQRLEWIGWIDLENANTVYDAKFQGRVTITRDTSASAAYMELSSLRSEDTAVYYCARDAYGRYFYDVWGQGTLVTVSS
VL: DIVMTQSPDSLAVSLGERATINCKSSQSLLNARTRKNYLAWYQQKPGRPPKLLIYWASTRESGVPDRFSGSGSGTDFTLTISSLQAEDVAVYYCVQSYFRRTFGGGTKVEIK
notes: also called Ab40
With B2, the “Cell Binding Fold Over Background (FOB)” value in assay [1] was found to be 30 FOB; in assay [3], 17 FOB. Besides, in assay [2], the “Cell Binding cCD3 (FOB)” value is 91 FOB. Besides, the results for the Kd with Human CD3εδ-Fc (human) [4] and in the assay with Human CD3εδ-Fc (human) [6] were 0.12 nM and 0.92 nM, respectively. In addition, the “Cell Binding hCD3 (FOB)” value in assay [5] stood at 22 FOB.

B3: ADI-45975 (antibody, V domains shown)
VH: QVQLVQSGAEVKKPGASVKVSCKASGFNIKDYYMHWVRQAPGQRLEWIGWIDLENANTVYDAKFQGRVTITRDTSASTAYMELSSLRSEDTAVYYCARDAYGQYFYDVWGQGTLVTVSS
VL: DIVMTQSPDSLAVSLGERATINCKSSQSLLNARTRKNYLAWYQQKPGQPPKLLIYWASTRESGVPDRFSGSGSGTDFTLTISSLQAEDVAVYYCKQSYFRRTFGGGTKVEIK
notes: also called Ab11
As to B3, the “Cell Binding Fold Over Background (FOB)” value is 17 FOB in assay [1] and 10 FOB in assay [3]. Further, in assay [2], the “Cell Binding cCD3 (FOB)” value stood at 142 FOB. Also, the Kd with Human CD3εδ-Fc (human) [4] stood at 0.21 nM; with Human CD3εδ-Fc (human) [6], 0.067 nM; in assay [7] it was 1.4 nM. In addition, the “Cell Binding hCD3 (FOB)” value in assay [5] turned out to be 86 FOB.

B4: ADI-45959 (antibody, V domains shown)
VH: QVQLVQSGAEVKKPGASVKVSCKASGFNIKDYYMHWVRQAPGQRLEWIGWIDLENANTVYDAKFQGRVTITRDTSASTAYMELSSLRSEDTAVYYCARDAYGRYFYDVWGQGTLVTVSS
VL: DIVMSQSPDSLAVSLGERATINCKSSQSLLNARTGKNYLAWYQQKPGQPPKLLIYWASTRSSGVPDRFSGSGSGTDFTLTISSLQAEDVAVYYCVQSYFRRTFGGGTKVEIK
notes: also called Ab13
For the molecule B4, the “Cell Binding Fold Over Background (FOB)” value in assay [1] was determined as 30 FOB; in assay [3], 18 FOB. Besides, the “Cell Binding cCD3 (FOB)” value in assay [2] turned out to be 112 FOB. In addition, the Kd with Human CD3εδ-Fc (human) [4] was 0.12 nM; with Human CD3εδ-Fc (human) [6], 0.13 nM; in assay [7], 1.7 nM. Also, in assay [5], the “Cell Binding hCD3 (FOB)” value is 19 FOB.

B5: ADI-45984 (antibody, V domains shown)
VH: QVQLVQSGAEVKKPGASVKVSCKASGFNIKDYYMHWVRQAPGQRLEWIGWIDLENANTVYDAKFQGRVTITRDTSASTAYMELSSLRSEDTAVYYCARDAYGRYFYDVWGQGTLVTVSS
VL: DIVMTQSPDSLAVSLGERATINCKSSQSLLNARTRKNYLAWYQQKPGQPPKLLIYWASTRESGVPDRFSGSGSGTDFTLTISSLQAEDVAVYYCVQSYFRRTFGGGTKVEIK
notes: also called Ab21
With B5, the “Cell Binding cCD3 (FOB)” value in assay [2] amounted to 92 FOB. Also, the “Cell Binding hCD3 (FOB)” value in assay [5] was 88 FOB. For the same molecule, the Kd with Human CD3εδ-Fc (human) [6] worked out at 0.095 nM; in assay [7], 1.3 nM.

B6: ADI-46357 (antibody, V domains shown)
VH: QVQLVQSGAEVKKPGASVKVSCKASGFNIKDYYMHWVRQAPGQRLEWIGWIDLENANTVYDAKFQGRVTITRDTSASTAYMELSSLRSEDTAVYYCARDAYGRYFYDVWGQGTLVTVSS
VL: DIVMTQSPDSLAVSLGERATINCKSSQSLLNARTGKNYLAWYQQKPGQPPKLLIYWASTRESGVPDRFSGSGSGTDFTLTISSLQAEDVAVYYCAQSYFRRTFGGGTKVEIK
notes: also called Ab30
Turning to B6, the “Cell Binding Fold Over Background (FOB)” value in assay [1] is 20 FOB; in assay [3] it was 13 FOB. Moreover, in assay [2], the “Cell Binding cCD3 (FOB)” value was determined as 80 FOB. Besides, the Kd with Human CD3εδ-Fc (human) [4] was determined as 0.25 nM; with Human CD3εδ-Fc (human) [6], 0.97 nM. Moreover, the “Cell Binding hCD3 (FOB)” value in assay [5] came to 24 FOB.

B7: ADI-46366 (antibody, V domains shown)
VH: QVQLVQSGAEVKKPGASVKVSCKASGFNIKDYYMHWVRQAPGQRLEWIGWIDLENANTVYDAKFQGRVTITRDTSASTAYMELSSLRSEDTAVYYCARDAYGQYFYDVWGQGTLVTVSS
VL: DIVMTQSPDSLAVSLGERATINCKSSQSLLNARTGKNYLAWYQQKPGQPPKLLIYWASTRESGVPDRFSGSGSGTDFTLTISSLQAEDVAVYYCVQSYFRRTFGGGTKVEIK
notes: also called Ab50
B7: the “Cell Binding Fold Over Background (FOB)” value is 32 FOB in assay [1] and 16 FOB in assay [3]. In assay [2], the “Cell Binding cCD3 (FOB)” value worked out at 108 FOB. The equilibrium dissociation constant (Kd) with Human CD3εδ-Fc (human) [4] was found to be 0.23 nM; with Human CD3εδ-Fc (human) [6], 0.93 nM. Moreover, the “Cell Binding hCD3 (FOB)” value in assay [5] is 43 FOB.

B8: ADI-45985 (antibody, V domains shown)
VH: QVQLVQSGAEVKKPGASVKVSCKASGFNIKDYYMHWVRQAPGQRLEWIGWIDLENANTVYDAKFQGRVTITRDTSASTAYMELSSLRSEDTAVYYCARDAYGRYFYDVWGQGTLVTVSS
VL: DIVMTQSPDSLAVSLGERATINCKTSQSLLNARTNKNYLAWYQQKPGQPPKLLIYWASTRESGVPDRFSGSGSGTDFTLTISSLQAEDVAVYYCVQSYFRRTFGGGTKVEIK
notes: also called Ab22
As to B8, in assay [2], the “Cell Binding cCD3 (FOB)” value worked out at 23 FOB. For the same molecule, the “Cell Binding hCD3 (FOB)” value in assay [5] came to 21 FOB. Besides, the dissociation constant Kd with Human CD3εδ-Fc (human) [6] is 0.08 nM; in assay [7] it was 1.2 nM.

B9: ADI-46359 (antibody, V domains shown)
VH: QVQLVQSGAEVKKPGASVKVSCKASGFNIKDYYMHWVRQAPGQRLEWIGWIDLENANTVYDAKFQGRVTITRDTSASTAYMELSSLRSEDTAVYYCARDAYGQYFYDVWGQGTLVTVSS
VL: DIVMTQSPDSLAVSLGERATINCKSSQSLLNARTGKNYLAWYQQKPGQPPKLLIYWASTRESGVPDRFSGSGSGTDFTLTISSLQAEDVAVYYCTQSYFRRTFGGGTKVEIK
notes: also called Ab42
Take B9: the entries for the “Cell Binding Fold Over Background (FOB)” value in assay [1] and in assay [3] were 28 FOB and 15 FOB, respectively. In addition, the “Cell Binding cCD3 (FOB)” value in assay [2] came to 102 FOB. The Kd with Human CD3εδ-Fc (human) [4] is 0.22 nM; in the assay with Human CD3εδ-Fc (human) [6], 0.89 nM. Also, the “Cell Binding hCD3 (FOB)” value in assay [5] stood at 43 FOB.

B10: ADI-42596 (antibody, V domains shown)
VH: QVQLVQSGAEVKKPGASVKVSCKASGFNIKDYYMHWVRQAPGQRLEWIGWIDLENANTVYDAKFQGRVTITRDTSASTAYMELSSLRSEDTAVYYCARDAYGRYFYDVWGQGTLVTVSS
VL: DIVMTQSPDSLAVSLGERATINCKSSQSLLNARTRKNYLAWYQQKPGQPPKLLIYWASTRESGVPDRFSGSGSGTDFTLTISSLQAEDVAVYYCKQSYFRRTFGGGTKVEIK
notes: also called Ab2
B10: the Kd with Human CD3εδ-Fc (human) [8] is 1.1 nM; with Human CD3εδ-Fc (human) [6] it was 0.16 nM; in assay [7], 2.4 nM. In addition, the “Cell Binding cCD3 (FOB)” value in assay [2] was found to be 46 FOB. In addition, in assay [5], the “Cell Binding hCD3 (FOB)” value is 29 FOB.
